Laboratory results reported in paper PMC9482650, “Quantitative fragmentomics allow affinity mapping of interactomes” (Nature Communications, 2022).

Key:
Test in all cases: holdup assay
Parameters in all cases: key: below the threshold = too weak to quantify, mostly under pKd 3.1 to 4
Inadl_3, Q8NI35 = target: Inadl_3, Q8NI35
GRID2IP_2, A4D2P6 = target: GRID2IP_2, A4D2P6
Inadl_10, Q8NI35 = target: Inadl_10, Q8NI35
LRRC7, Q96NW7 = target: T1, LRRC7, Q96NW7
T1 sequence (Q96NW7 1440-1537, limits assumed, looked up): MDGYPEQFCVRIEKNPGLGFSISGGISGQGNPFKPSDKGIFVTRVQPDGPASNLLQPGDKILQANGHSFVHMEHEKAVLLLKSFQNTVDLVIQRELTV

LNX1_3, Q8TBB1 = target: LNX1_3, Q8TBB1
Sequence of LNX1_3, Q8TBB1 (Q8TBB1 500-596): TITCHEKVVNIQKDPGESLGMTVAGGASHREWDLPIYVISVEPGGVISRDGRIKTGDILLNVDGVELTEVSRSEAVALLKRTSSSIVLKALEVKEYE

FRMPD4, Q14CM0 = target: FRMPD4, Q14CM0
Sequence of FRMPD4, Q14CM0 (Q14CM0 67-160): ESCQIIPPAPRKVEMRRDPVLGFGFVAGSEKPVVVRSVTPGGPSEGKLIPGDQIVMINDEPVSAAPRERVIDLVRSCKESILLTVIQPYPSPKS

PDZRN4_1, Q6ZMN7 = target: PDZRN4_1, Q6ZMN7
Sequence of PDZRN4_1, Q6ZMN7 (Q6ZMN7 213-318): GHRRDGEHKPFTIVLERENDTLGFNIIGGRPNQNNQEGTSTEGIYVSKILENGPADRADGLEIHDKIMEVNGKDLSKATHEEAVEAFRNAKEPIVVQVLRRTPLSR

SNTG2, Q9NY99 = target: T2, SNTG2, Q9NY99
T2 sequence (Q9NY99 68-166, limits assumed, looked up): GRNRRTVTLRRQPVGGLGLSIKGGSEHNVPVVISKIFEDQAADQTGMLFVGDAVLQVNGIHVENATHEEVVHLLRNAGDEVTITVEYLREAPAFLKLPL

PDZRN3_1, Q9UPQ7 = target: T3, PDZRN3_1, Q9UPQ7
T3 sequence (Q9UPQ7 244-349, limits assumed, looked up): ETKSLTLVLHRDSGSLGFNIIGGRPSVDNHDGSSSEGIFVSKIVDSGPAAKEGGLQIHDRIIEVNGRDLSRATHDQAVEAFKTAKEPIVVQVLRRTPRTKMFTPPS

Inadl_6, Q8NI35 = target: Inadl_6, Q8NI35
Sequence of Inadl_6, Q8NI35 (Q8NI35 1058-1167): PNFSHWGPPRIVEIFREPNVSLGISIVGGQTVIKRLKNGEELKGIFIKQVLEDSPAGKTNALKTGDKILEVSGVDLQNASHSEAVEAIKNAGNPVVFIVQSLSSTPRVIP

SNTB1, Q13884 = target: T4, SNTB1, Q13884
T4 sequence (Q13884 107-205, limits assumed, looked up): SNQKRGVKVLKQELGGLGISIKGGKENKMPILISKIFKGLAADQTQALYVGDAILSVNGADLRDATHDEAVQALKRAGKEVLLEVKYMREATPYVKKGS

SIPA1L2, Q9P2F8 = target: T5, SIPA1L2, Q9P2F8
T5 sequence (Q9P2F8 945-1036, limits assumed, looked up): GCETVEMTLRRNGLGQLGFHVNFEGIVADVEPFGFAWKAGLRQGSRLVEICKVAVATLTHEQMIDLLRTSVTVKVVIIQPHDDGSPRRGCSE

MPP6, Q9NZW5 = target: T6, MPP6, Q9NZW5
T6 sequence (Q9NZW5 125-219, limits assumed, looked up): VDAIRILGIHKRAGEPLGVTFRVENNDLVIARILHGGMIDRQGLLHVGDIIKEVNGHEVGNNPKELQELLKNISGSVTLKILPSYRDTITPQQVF

DLG4_1, P78352 = target: DLG4_1, P78352
Sequence of DLG4_1, P78352 (P78352 62-152): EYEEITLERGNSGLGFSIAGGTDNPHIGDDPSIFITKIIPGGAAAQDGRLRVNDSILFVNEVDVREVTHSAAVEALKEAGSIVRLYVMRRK

DLG3_3, Q92796 = target: T7, DLG3_3, Q92796
T7 sequence (Q92796 374-475, limits assumed, looked up): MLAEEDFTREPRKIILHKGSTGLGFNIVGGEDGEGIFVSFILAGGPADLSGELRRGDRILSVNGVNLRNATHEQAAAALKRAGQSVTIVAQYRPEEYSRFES

PARD3B_1, Q8TEW8 = target: T8, PARD3B_1, Q8TEW8
T8 sequence (Q8TEW8 196-299, limits assumed, looked up): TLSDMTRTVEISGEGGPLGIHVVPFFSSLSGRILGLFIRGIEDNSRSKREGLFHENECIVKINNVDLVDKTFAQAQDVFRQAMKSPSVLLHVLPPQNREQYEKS

NHERF4_4, Q86UT5 = target: NHERF4_4, Q86UT5
Sequence of NHERF4_4, Q86UT5 (Q86UT5 464-550): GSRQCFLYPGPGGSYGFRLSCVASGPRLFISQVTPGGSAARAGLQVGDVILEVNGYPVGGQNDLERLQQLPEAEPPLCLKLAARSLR

SNX27, Q96L92 = target: SNX27, Q96L92
APBA2_1, Q99767 = target: T9, APBA2_1, Q99767
T9 sequence (Q99767 563-664, limits assumed, looked up): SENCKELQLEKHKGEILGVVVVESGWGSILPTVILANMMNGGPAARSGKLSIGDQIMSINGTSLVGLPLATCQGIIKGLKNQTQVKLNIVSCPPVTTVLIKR

APBA1_1, Q02410 = target: T10, APBA1_1, Q02410
T10 sequence (Q02410 651-752, limits assumed, looked up): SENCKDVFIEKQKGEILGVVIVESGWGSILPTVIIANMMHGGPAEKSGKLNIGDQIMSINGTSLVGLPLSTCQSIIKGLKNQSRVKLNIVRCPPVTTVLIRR

PICK1, Q9NRD5 = target: PICK1, Q9NRD5
Sequence of PICK1, Q9NRD5 (Q9NRD5 17-115): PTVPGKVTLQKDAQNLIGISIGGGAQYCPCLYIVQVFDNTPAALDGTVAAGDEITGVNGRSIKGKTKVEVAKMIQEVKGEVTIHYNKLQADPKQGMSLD

LIMK2, P53671 = target: LIMK2, P53671
Sequence of LIMK2, P53671 (P53671 143-248): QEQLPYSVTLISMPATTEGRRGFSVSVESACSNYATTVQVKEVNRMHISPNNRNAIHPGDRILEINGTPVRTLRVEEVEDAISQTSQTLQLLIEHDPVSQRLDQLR

GRIP2_3, Q9C0E4 = target: GRIP2_3, Q9C0E4
Sequence of GRIP2_3, Q9C0E4 (Q9C0E4 238-339): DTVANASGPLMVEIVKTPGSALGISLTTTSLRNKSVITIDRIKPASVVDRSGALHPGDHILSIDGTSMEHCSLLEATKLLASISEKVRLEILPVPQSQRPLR

IL16_3, Q14005 = target: IL16_3, Q14005
Sequence of IL16_3, Q14005 (Q14005 1107-1207): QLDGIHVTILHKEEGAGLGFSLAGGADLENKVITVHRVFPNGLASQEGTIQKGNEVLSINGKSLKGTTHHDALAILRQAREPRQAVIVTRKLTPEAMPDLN

ARHGAP21, Q5T5U3 = target: T11, ARHGAP21, Q5T5U3
T11 sequence (Q5T5U3 45-169, limits assumed, looked up): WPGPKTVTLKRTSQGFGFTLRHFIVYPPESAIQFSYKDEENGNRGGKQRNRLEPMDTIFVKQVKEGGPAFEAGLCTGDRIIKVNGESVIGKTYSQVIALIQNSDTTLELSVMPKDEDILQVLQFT

[1] = plain residues with an end cap or a label only (N-terminal biotin on a linker: ttds)
[2] = plain residues with an end cap or a label only (N-terminal biotin on a linker: ahx)

Sequence of Inadl_3, Q8NI35 (Q8NI35 359-469): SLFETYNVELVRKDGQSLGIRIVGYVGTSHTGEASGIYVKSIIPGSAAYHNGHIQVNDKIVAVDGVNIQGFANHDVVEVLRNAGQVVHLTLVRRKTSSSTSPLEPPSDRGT
Sequence of Inadl_10, Q8NI35 (Q8NI35 1673-1763): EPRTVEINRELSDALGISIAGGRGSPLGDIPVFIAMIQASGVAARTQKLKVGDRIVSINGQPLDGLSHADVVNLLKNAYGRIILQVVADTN
Sequence of GRID2IP_2, A4D2P6 (A4D2P6 272-370): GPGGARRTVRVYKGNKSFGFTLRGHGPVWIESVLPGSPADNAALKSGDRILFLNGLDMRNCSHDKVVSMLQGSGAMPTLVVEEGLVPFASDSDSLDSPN

QSARYRDTEL [TJP2, Q9UDY2]
pKd (Inadl_3, Q8NI35; [1]): below the threshold
pKd (GRID2IP_2, A4D2P6; [1]): below the threshold
pKd (Inadl_10, Q8NI35; [1]): below the threshold
pKd (LRRC7, Q96NW7; [1]): 3.86
pKd (LNX1_3, Q8TBB1; [1]): below the threshold
pKd (FRMPD4, Q14CM0; [1]): 4.35
pKd (PDZRN4_1, Q6ZMN7; [1]): 4.41
pKd (SNTG2, Q9NY99; [1]): 3.84
pKd (PDZRN3_1, Q9UPQ7; [1]): 4.67
pKd (Inadl_6, Q8NI35; [1]): below the threshold
pKd (SNTB1, Q13884; [1]): 3.86
pKd (SIPA1L2, Q9P2F8; [1]): below the threshold
pKd (MPP6, Q9NZW5; [1]): below the threshold
pKd (DLG4_1, P78352; [1]): 3.52
pKd (DLG3_3, Q92796; [1]): below the threshold
pKd (PARD3B_1, Q8TEW8; [1]): below the threshold
pKd (NHERF4_4, Q86UT5; [1]): 3.47
pKd (SNX27, Q96L92; [1]): 4.69
pKd (APBA2_1, Q99767; [1]): below the threshold
pKd (APBA1_1, Q02410; [1]): below the threshold
pKd (PICK1, Q9NRD5; [1]): below the threshold
pKd (LIMK2, P53671; [1]): below the threshold
pKd (GRIP2_3, Q9C0E4; [1]): below the threshold
pKd (IL16_3, Q14005; [1]): below the threshold
pKd (ARHGAP21, Q5T5U3; [1]): 4.48

STLTIFETAL [ABCC4, O15439]
pKd (Inadl_3, Q8NI35; [1]): 4
pKd (GRID2IP_2, A4D2P6; [1]): 4.36
pKd (Inadl_10, Q8NI35; [1]): 3.52
pKd (LRRC7, Q96NW7; [1]): 4.39
pKd (LNX1_3, Q8TBB1; [1]): below the threshold
pKd (FRMPD4, Q14CM0; [1]): 4.64
pKd (PDZRN4_1, Q6ZMN7; [1]): 5.42
pKd (SNTG2, Q9NY99; [1]): 4.97
pKd (PDZRN3_1, Q9UPQ7; [1]): 5.46
pKd (Inadl_6, Q8NI35; [1]): 4.89
pKd (SNTB1, Q13884; [1]): 5.05
pKd (SIPA1L2, Q9P2F8; [1]): below the threshold
pKd (MPP6, Q9NZW5; [1]): below the threshold
pKd (DLG4_1, P78352; [1]): 4.23
pKd (DLG3_3, Q92796; [1]): 3.83
pKd (PARD3B_1, Q8TEW8; [1]): 3.94
pKd (NHERF4_4, Q86UT5; [1]): 4.24
pKd (SNX27, Q96L92; [1]): 5.85
pKd (APBA2_1, Q99767; [1]): below the threshold
pKd (APBA1_1, Q02410; [1]): below the threshold
pKd (PICK1, Q9NRD5; [1]): below the threshold
pKd (LIMK2, P53671; [1]): below the threshold
pKd (GRIP2_3, Q9C0E4; [1]): below the threshold
pKd (IL16_3, Q14005; [1]): below the threshold
pKd (ARHGAP21, Q5T5U3; [1]): 4.53

TEAKLTETNA [MYO18A, Q92614]
pKd (Inadl_3, Q8NI35; [2]): below the threshold
pKd (GRID2IP_2, A4D2P6; [2]): below the threshold
pKd (Inadl_10, Q8NI35; [2]): below the threshold
pKd (LRRC7, Q96NW7; [2]): below the threshold
pKd (LNX1_3, Q8TBB1; [2]): below the threshold
pKd (FRMPD4, Q14CM0; [2]): below the threshold
pKd (PDZRN4_1, Q6ZMN7; [2]): below the threshold
pKd (SNTG2, Q9NY99; [2]): below the threshold
pKd (PDZRN3_1, Q9UPQ7; [2]): below the threshold
pKd (Inadl_6, Q8NI35; [2]): below the threshold
pKd (SNTB1, Q13884; [2]): below the threshold
pKd (SIPA1L2, Q9P2F8; [2]): below the threshold
pKd (MPP6, Q9NZW5; [2]): below the threshold
pKd (DLG4_1, P78352; [2]): below the threshold
pKd (DLG3_3, Q92796; [2]): below the threshold
pKd (PARD3B_1, Q8TEW8; [2]): below the threshold
pKd (NHERF4_4, Q86UT5; [2]): below the threshold
pKd (SNX27, Q96L92; [2]): below the threshold
pKd (APBA2_1, Q99767; [2]): below the threshold
pKd (APBA1_1, Q02410; [2]): below the threshold
pKd (PICK1, Q9NRD5; [2]): below the threshold
pKd (LIMK2, P53671; [2]): below the threshold
pKd (GRIP2_3, Q9C0E4; [2]): below the threshold
pKd (IL16_3, Q14005; [2]): below the threshold
pKd (ARHGAP21, Q5T5U3; [2]): below the threshold

IDNDTESTAL [ARHGAP17, Q68EM7]
pKd (Inadl_3, Q8NI35; [1]): below the threshold
pKd (GRID2IP_2, A4D2P6; [1]): 4.87
pKd (Inadl_10, Q8NI35; [1]): below the threshold
pKd (LRRC7, Q96NW7; [1]): below the threshold
pKd (LNX1_3, Q8TBB1; [1]): below the threshold
pKd (FRMPD4, Q14CM0; [1]): 4.45
pKd (PDZRN4_1, Q6ZMN7; [1]): 4.26
pKd (SNTG2, Q9NY99; [1]): 3.8
pKd (PDZRN3_1, Q9UPQ7; [1]): 4.44
pKd (Inadl_6, Q8NI35; [1]): 3.91
pKd (SNTB1, Q13884; [1]): 4.13
pKd (SIPA1L2, Q9P2F8; [1]): below the threshold
pKd (MPP6, Q9NZW5; [1]): below the threshold
pKd (DLG4_1, P78352; [1]): below the threshold
pKd (DLG3_3, Q92796; [1]): below the threshold
pKd (PARD3B_1, Q8TEW8; [1]): 3.93
pKd (NHERF4_4, Q86UT5; [1]): below the threshold
pKd (SNX27, Q96L92; [1]): 4.97
pKd (APBA2_1, Q99767; [1]): below the threshold
pKd (APBA1_1, Q02410; [1]): below the threshold
pKd (PICK1, Q9NRD5; [1]): below the threshold
pKd (LIMK2, P53671; [1]): below the threshold
pKd (GRIP2_3, Q9C0E4; [1]): below the threshold
pKd (IL16_3, Q14005; [1]): below the threshold
pKd (ARHGAP21, Q5T5U3; [1]): below the threshold

GQDSREETQL [KCNT2, Q6UVM3]
pKd (Inadl_3, Q8NI35; [1]): below the threshold
pKd (GRID2IP_2, A4D2P6; [1]): 4.52
pKd (Inadl_10, Q8NI35; [1]): below the threshold
pKd (LRRC7, Q96NW7; [1]): below the threshold
pKd (LNX1_3, Q8TBB1; [1]): below the threshold
pKd (FRMPD4, Q14CM0; [1]): 4.48
pKd (PDZRN4_1, Q6ZMN7; [1]): 4.97
pKd (SNTG2, Q9NY99; [1]): 4.39
pKd (PDZRN3_1, Q9UPQ7; [1]): 4.97
pKd (Inadl_6, Q8NI35; [1]): 4.19
pKd (SNTB1, Q13884; [1]): 4.49
pKd (SIPA1L2, Q9P2F8; [1]): below the threshold
pKd (MPP6, Q9NZW5; [1]): below the threshold
pKd (DLG4_1, P78352; [1]): below the threshold
pKd (DLG3_3, Q92796; [1]): below the threshold
pKd (PARD3B_1, Q8TEW8; [1]): below the threshold
pKd (NHERF4_4, Q86UT5; [1]): below the threshold
pKd (SNX27, Q96L92; [1]): 5.27
pKd (APBA2_1, Q99767; [1]): below the threshold
pKd (APBA1_1, Q02410; [1]): below the threshold
pKd (PICK1, Q9NRD5; [1]): below the threshold
pKd (LIMK2, P53671; [1]): below the threshold
pKd (GRIP2_3, Q9C0E4; [1]): below the threshold
pKd (IL16_3, Q14005; [1]): below the threshold
pKd (ARHGAP21, Q5T5U3; [1]): 3.68
